Measured values reported in patent publication US20250361312A1.
Where two headings read alike, the source gives them in different places.

Key:
[1] = target: human OX40 receptor, cell-expressed (DO11.10-hOX40) (human) (UniProt P43489); assay: cell-based or functional assay
[2] = target: human OX40 receptor, cell-expressed (DO11.10-hOX40) (human) (UniProt P43489); assay: cell-based or functional assay; remark: listed apart in the source
[3] = target: human OX40 receptor, cell-expressed (DO11.10-hOX40) (human) (UniProt P43489); assay: cell-based or functional assay; remark: listed apart in the source
[4] = target: human OX40 receptor, cell-expressed (DO11.10-hOX40) (human) (UniProt P43489); assay: cell-based or functional assay; remark: listed apart in the source
[5] = target: cynomolgus OX40 receptor, cell-expressed (DO11.10-cOX40) (cynomolgus); assay: flow cytometry on DO11.10-cOX40 cells
Sequence of cynomolgus OX40 receptor, cell-expressed (DO11.10-cOX40) (cynomolgus) (P43489 other isoform, or with tags, fused parts or gaps): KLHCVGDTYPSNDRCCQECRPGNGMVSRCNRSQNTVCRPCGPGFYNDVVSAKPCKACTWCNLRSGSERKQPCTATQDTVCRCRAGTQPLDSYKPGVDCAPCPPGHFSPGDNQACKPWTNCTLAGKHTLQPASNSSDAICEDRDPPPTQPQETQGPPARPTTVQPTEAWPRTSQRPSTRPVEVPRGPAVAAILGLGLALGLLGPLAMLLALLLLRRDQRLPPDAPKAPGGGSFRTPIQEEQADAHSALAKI

[6] = target: human OX40 receptor, cell-expressed (DO11.10-hOX40) (human) (UniProt P43489); assay: flow cytometry on DO11.10-hOX40 cells

Sequence of human OX40 receptor, cell-expressed (DO11.10-hOX40) (human) (P43489 29-277): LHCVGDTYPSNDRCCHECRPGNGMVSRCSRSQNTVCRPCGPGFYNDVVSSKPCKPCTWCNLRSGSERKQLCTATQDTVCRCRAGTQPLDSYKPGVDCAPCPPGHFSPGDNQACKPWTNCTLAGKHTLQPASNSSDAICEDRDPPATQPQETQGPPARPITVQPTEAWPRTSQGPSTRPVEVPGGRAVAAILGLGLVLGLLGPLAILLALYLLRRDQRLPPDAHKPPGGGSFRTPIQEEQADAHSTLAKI

## G1/11D4 (antibody)
[1]
  EC50 of IL-2 release, HPAC cells present, Xlink (anti-hCH2): 0.228 nM
  EC50 of IL-2 release, Xlink (anti-hCH2): 0.199 nM
  Max response, HPAC cells present, Xlink (anti-hCH2): 14800 mIL-2 pg/ml
  Max response, Xlink (anti-hCH2): 21900 mIL-2 pg/ml
[2]
  EC50 of IL-2 release, Xlink (anti-hCH2): 0.196 nM
  Max response, Xlink (anti-hCH2): 7200 mIL-2 pg/ml
[3]
  EC50 of IL-2 release, Xlink (anti-hCH2): 0.000153 nM
  Max response, Xlink (anti-hCH2): 25000 mIL-2 pg/ml
[4]
  EC50 of IL-2 release, Xlink (anti-hCH2): 0.14 nM
  Max response, Xlink (anti-hCH2): 24500 mIL-2 pg/ml

## G1AA/11D4 (antibody)
[1]
  EC50 of IL-2 release, crosslinked (anti-human CH2 mAb): 0.0493 nM
  Max response, crosslinked: 26700 hIL-2 pg/ml
[5]
  EC50: 0.213 nM
[6]
  EC50: 0.814 nM
